The results in this text go back to article PMC11514447, “Eukaryotic initiation factor 4B is a multi-functional RNA binding protein that regulates histone mRNAs”.

This data set deals with eIF4B (UniProt P23588 1-611). The data set is described as follows: fluorescence polarization; 2 mM ATP, 2 mM Mg2+; 20 mM HEPES/KOH pH 7.5, 100 mM KCl, 1 mM TCEP, 2 mM ATP, 2 mM MgCl2, 40 nM FAM-RNA, 60 min, 25 C; Kd values only in figures (one-site fit, n=3). Particulars: protein: recombinant. (In general: Fluorescence polarisation rises when a labelled molecule tumbles more slowly, as on binding a larger partner.)
Sequence of eIF4B (P23588 whole entry): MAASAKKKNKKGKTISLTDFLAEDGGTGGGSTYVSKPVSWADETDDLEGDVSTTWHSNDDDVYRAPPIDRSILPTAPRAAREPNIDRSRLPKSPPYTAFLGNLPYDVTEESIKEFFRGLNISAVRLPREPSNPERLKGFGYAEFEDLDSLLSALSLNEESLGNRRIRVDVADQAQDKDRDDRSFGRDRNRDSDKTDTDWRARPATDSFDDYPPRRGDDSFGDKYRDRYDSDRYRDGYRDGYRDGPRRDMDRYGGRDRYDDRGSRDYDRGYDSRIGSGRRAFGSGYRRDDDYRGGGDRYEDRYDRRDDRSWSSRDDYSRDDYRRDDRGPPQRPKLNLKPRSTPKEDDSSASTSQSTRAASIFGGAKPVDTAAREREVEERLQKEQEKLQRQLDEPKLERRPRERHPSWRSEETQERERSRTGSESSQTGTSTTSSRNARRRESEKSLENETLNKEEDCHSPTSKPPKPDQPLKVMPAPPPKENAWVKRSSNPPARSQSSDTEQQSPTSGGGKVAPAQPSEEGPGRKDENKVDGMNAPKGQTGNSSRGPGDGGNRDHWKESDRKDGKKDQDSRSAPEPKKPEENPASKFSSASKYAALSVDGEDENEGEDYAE

Turning to GGCUGGCGUGAGGGUCUCCCUUGAUCUGAGAAUG (ssRNA) [CDK4-5'UTR], the binding result was “binds”.

B1: His1-FL (structured_RNA)
RNA: UCCUUUGGCCAACUGCUUAGAAGCCCAACACAACCCAAAGGCUCUUUUCAGAGCCACCCA
B1: the binding result (3' hairpin, 6-bp stem, 4-nt loop) was “binds”.

Take GCUGCACUCUUAUUUUCAUUUUCAACCAAA (ssRNA) [His4-ssRNA]: the binding result is recorded as “binds”.

For the molecule UCCUUUGGCCAACUGCUUAGAAGCCCAACACAACCCAAA (ssRNA) [His1-ssRNA], the binding result is “binds”.
